According to US20230025129A1 (KYMAB, published 2023):
Read-outs that look alike come from different tables or passages of the source.

Experiments:
[1] = target: T1, human matriptase-2 ECD protein his tag (human, UniProt Q8IU80 78-811); assay: cell-based or functional assay
T1 sequence: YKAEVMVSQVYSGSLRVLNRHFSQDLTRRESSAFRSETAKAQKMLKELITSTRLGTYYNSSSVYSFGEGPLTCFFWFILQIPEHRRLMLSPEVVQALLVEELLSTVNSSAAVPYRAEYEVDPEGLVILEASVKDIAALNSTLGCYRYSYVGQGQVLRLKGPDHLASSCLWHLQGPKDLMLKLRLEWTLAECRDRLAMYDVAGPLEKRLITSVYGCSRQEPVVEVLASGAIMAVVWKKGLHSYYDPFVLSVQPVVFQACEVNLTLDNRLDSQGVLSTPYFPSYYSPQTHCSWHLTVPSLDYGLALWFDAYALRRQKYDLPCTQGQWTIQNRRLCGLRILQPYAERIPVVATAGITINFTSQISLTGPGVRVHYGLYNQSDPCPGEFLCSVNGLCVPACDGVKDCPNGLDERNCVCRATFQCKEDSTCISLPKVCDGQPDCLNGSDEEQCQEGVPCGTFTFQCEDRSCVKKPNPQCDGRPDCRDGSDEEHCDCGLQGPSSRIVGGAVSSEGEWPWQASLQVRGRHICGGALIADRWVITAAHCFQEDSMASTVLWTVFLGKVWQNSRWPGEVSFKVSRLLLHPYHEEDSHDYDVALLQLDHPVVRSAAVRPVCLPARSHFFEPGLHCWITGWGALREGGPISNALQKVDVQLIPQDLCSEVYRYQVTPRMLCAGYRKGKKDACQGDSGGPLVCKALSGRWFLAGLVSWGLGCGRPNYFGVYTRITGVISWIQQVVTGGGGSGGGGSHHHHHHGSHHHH

[2] = target: T2, mouse matriptase-2 ECD protein his tag (mouse, UniProt Q9DBI0 80-811); assay: cell-based or functional assay
T2 sequence: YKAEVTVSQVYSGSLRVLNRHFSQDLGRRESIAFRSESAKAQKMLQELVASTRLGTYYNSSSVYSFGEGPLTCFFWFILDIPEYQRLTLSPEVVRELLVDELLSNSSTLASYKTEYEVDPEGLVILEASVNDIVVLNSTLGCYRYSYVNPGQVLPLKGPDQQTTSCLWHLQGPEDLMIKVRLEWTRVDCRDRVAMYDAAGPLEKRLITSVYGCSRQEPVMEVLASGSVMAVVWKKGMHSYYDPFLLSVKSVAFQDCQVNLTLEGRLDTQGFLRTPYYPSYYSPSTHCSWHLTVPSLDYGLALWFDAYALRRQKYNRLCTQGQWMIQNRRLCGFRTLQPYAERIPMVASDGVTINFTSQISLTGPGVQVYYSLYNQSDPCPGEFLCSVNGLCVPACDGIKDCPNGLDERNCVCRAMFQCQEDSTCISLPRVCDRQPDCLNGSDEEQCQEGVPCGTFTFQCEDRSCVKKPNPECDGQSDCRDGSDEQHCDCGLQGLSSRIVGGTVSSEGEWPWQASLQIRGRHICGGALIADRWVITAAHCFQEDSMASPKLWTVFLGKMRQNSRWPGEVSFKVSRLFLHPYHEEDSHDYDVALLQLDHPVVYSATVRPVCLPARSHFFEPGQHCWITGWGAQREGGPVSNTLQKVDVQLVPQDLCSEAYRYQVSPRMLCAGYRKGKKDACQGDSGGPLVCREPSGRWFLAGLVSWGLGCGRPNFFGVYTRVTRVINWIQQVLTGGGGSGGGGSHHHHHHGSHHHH

[3] = target: T1, human matriptase-2 ECD protein his tag; assay: cell-based or functional assay; remark: listed apart in the source
[4] = target: T2, mouse matriptase-2 ECD protein his tag; assay: cell-based or functional assay; remark: listed apart in the source
[5] = target: T3, human MTP-2 expressed on HEK293 cells (human, UniProt Q8IU80 1-811); assay: cell-based or functional assay
T3 sequence: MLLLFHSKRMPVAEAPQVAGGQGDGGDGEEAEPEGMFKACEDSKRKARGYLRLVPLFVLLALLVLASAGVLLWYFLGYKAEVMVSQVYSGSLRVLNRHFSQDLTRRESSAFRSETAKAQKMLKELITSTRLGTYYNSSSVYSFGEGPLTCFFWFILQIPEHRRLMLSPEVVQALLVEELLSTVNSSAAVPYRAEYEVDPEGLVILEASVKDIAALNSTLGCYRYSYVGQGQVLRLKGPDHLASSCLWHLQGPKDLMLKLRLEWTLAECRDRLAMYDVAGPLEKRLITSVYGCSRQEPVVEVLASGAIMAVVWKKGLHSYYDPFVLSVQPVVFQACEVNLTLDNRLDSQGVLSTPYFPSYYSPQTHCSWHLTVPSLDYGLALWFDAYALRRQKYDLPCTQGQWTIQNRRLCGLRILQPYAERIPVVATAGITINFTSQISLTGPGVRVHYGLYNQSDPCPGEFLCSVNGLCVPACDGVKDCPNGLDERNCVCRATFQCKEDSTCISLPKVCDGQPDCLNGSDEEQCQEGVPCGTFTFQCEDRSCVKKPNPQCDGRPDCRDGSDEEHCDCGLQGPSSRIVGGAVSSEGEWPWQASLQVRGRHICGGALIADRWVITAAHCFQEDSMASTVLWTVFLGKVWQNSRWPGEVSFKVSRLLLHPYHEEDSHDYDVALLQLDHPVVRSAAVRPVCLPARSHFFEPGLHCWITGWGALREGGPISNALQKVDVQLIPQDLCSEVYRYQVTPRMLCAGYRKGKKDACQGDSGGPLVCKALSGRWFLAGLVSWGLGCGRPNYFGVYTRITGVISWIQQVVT

[6] = target: T2, mouse matriptase-2 ECD protein his tag; assay: SPR (Biacore 8K), huIgG4PE captured on anti-human Fc, MTP-2 ECD as analyte, 1:1 fit; off-rate too slow to be determined
Protocol: Off-rate screening was performed by surface plasmon resonance (SPR), using a Biacore 8K system (GE Healthcare). Anti-human Fc mix (˜1000 RU) were immobilised in both active and reference channels in HBS-P+ buffer (GE BR100671) pH 7.4. Anti-MTP-2 hulgG4PE antibodies were then captured for 60 sec at 10 μl/min at 1 μg/ml concentration (approximatively 35 and 50 RU were captured) only on the active channel. MTP-2 ECD protein analytes were then injected (at 100, 25, 6.25, 1.56 and 0 nM concentrations) for 120 sec (association time) at 30 μl/min and dissociation monitored for 600 sec. Multiple cycle kinetics mode was used with all 8 channels being used. Reference and background were subtracted from the sensorgrams for each antibody and data was fitted using a 1:1 interaction model in the Biacore evaluation software. Rmax, ka, kd globally fitted, RI=0.

B1: NORI-006 (antibody, human IgG4 S228P, kappa, V domains shown)
VH: EVQLVESGGGLIKPGRSLRLSCTGSGFTFGDFGLSWFRQAPGKGLEWISFIRSKPYGGTTDYAASVKGRFTISRDDSKNVAYLQMNSLKTEDTAVYYCARNEILTGYYIFDYWGQGTLVTVSS
VL: DIQMTQSPSSLSASLGDRVTITCQASQDINNYLNWYQVQPGKAPKLLIFDASILETGVPSRFSGSGSGTDFSFTISSLQPEDIATYYCQQYDNLPLTFGGGTKVDFKR
notes: human IgG4PE, kappa
B1 was tested, and the “Inhibition enzymatic activity human MTP2 protein (IC50)” value [1] was 8.8 nM, the “Inhibition enzymatic activity mouse MTP2 protein (IC50)” value [2] was 22.9 nM and the “Inhibition enzymatic activity human MTP2 protein (IC50)” value [3] was 1.26 nM. For the same binder, the “Inhibition enzymatic activity mouse MTP2 protein (IC50)” value [4] was 27.6 nM.

B2: NORI-008 (antibody, human IgG4 S228P, kappa, V domains shown)
VH: QVQLQESGPGLVKPSETLSLTCSVSGGSVSSGRYYWTWIRQPPGKGLEWIGYISNSGNTNYNPSLKSRVTISLDTSKKQFSLSLSAVTAADTAVYYCARGFIYDYWFDPWGQGSLVTVSS
VL: DSQMTQSPSSLSASVGDRVTITCQASQDIDNYLNWYQQRPGKAPKLLIYDASKLETGVPSRFSGSGSGTDFTFTISSLQPEDFATYYCQQYGNLPITFGQGTRLDIKR
notes: human IgG4PE, kappa, in the in vitro assays; a mouse IgG1 format was used in one in vivo study only; also called NORI-008 hulgG4PE; NORI-008 IgG
In the case of B2, the “Inhibition enzymatic activity human MTP2 protein (IC50)” value [1] is reported as 8.28 nM, the “Inhibition enzymatic activity mouse MTP2 protein (IC50)” value [2] is reported as 1.5 nM and the “Inhibition enzymatic activity human MTP2 on cells (IC50)” value [5] is reported as 0.0839 nM. The “Inhibition enzymatic activity human MTP2 protein (IC50)” value [3] was 0.446 nM and the “Inhibition enzymatic activity mouse MTP2 protein (IC50)” value [4] was 0.757 nM.

B3: NORI-013 (antibody, human IgG4 S228P, lambda, V domains shown)
VH: EVQLVESGGGLIQAGRSLRLSCAASGFTFDEHVIYWVRQIPGKGLEWISSISWKSDIIAYADSVKGRFTISRDNAKNALYLQMNSLRAEDTALYYCAREKDGDFYYYYFAMDVWGQGTTVTVSS
VL: QSALTQPPSASGSPGQSVTLSCTGTSSDVGYYNYVSWYLQHPGKAPKLMIYEVSKRPSGVPDRFSGSKSANTASLTVSGLQAEDEADYYCSSYAGSNKVVFGGGTKVTVLG
notes: human IgG4PE, lambda
In the case of B3, the “Inhibition enzymatic activity human MTP2 protein (IC50)” value [1] is reported as 5.63 nM, the “Inhibition enzymatic activity mouse MTP2 protein (IC50)” value [2] is reported as 3.59 nM and the “Inhibition enzymatic activity human MTP2 on cells (IC50)” value [5] is reported as 0.619 nM. For the same binder, the koff [6] was ≤ 1e-05 s⁻¹.

B4: NORI-014 (antibody, human IgG4 S228P, lambda, V domains shown)
VH: EVQLVESGGGLIQAGRSLRLSCAASGFTFDEHVMYWVRQIPGKGLEWISSITWKSDIIAYADSVKGRFTISRDNAKNALYLQMNSLRAEDTALYYCAREKDGDFYYYYFAMDVWGQGTTVTVSS
VL: QSALTQPPSASGSPGQSVTLSCTGTSSDVGYYNYVSWYLQHPGKAPKLMIYEVSKRPSGVPDRFSGSKSANTASLTVSGLQAEDEADYYCSSYAGSNKVVFGGGTKVTVLG
notes: human IgG4PE, lambda
With B4 the “Inhibition enzymatic activity human MTP2 protein (IC50)” value [1] was 11.8 nM, the “Inhibition enzymatic activity mouse MTP2 protein (IC50)” value [2] was 8.5 nM and the “Inhibition enzymatic activity human MTP2 on cells (IC50)” value [5] was 0.532 nM. For the same binder, the koff [6] was ≤ 1e-05 s⁻¹.

B5: NORI-011 (antibody, human IgG4 S228P, lambda)
heavy: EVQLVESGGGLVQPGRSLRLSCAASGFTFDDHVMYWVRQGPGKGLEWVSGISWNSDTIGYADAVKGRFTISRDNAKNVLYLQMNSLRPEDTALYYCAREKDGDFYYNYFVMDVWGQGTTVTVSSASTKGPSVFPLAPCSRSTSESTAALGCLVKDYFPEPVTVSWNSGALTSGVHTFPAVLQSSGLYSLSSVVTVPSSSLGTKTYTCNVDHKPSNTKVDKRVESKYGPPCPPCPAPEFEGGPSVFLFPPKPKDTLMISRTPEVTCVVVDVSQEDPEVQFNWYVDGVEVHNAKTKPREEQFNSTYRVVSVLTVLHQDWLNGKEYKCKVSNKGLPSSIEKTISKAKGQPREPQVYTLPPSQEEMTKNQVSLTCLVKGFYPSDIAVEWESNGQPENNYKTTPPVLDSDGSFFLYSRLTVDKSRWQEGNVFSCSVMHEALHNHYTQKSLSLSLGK
light: QSALTQPPSASGSPGQSVTISCTGTSSDVGFYNFVSWYQQHPDKAPKVMIYEVSKRPSGVPDRFSGSKSGNTASLTVSGLQAEDEADYYCSSYAGSNKVVFGGGTKLTVLGQPKAAPSVTLFPPSSEELQANKATLVCLISDFYPGAVTVAWKADSSPVKAGVETTTPSKQSNNKYAASSYLSLTPEQWKSHRSYSCQVTHEGSTVEKTVAPTECS
notes: human IgG4PE, lambda; NORI-010 with a P124S mutation in the VH domain
For B5, the “Inhibition enzymatic activity human MTP2 protein (IC50)” value [3] was 11.4 nM and the “Inhibition enzymatic activity mouse MTP2 protein (IC50)” value [4] was 9.88 nM.

B6: NORI-003 (antibody, human IgG4 S228P, kappa, V domains shown)
VH: EVQLVESGGGLVKPGRSLRLSCTGSGFTFGDFGMSWFRQAPGKGLEWVGFIRSKPYGGTTDYAPSVRGRFSISRDDSKGIVYLQMNSLRTEDTAVYYCSRNEILTGYYIFDYWGQGTLVTVSS
VL: DIQMTQSPSSLSASLGDRVTITCQASHDITNYLIWYQQKPGKAPRLLIFDASILETGVPSRFSGSGSGTDFTFTISSLQPEDFATYYCQQYYNLPLTFGGGTKVDIKR
notes: human IgG4PE, kappa; NORI-002 with the free cysteine of the VH domain mutated (printed as 'C49C')
In the case of B6, the “Inhibition enzymatic activity human MTP2 protein (IC50)” value [3] is reported as 1.6 nM and the “Inhibition enzymatic activity mouse MTP2 protein (IC50)” value [4] is reported as 19 nM.
